The values below come from patent US20170151343A1 (AbbVie / Abbott, published 2017).

Experiment [1] addresses T1, human LRRC15 (leucine-rich repeat-containing protein 15), expressed on cells (human, UniProt Q8TF66 22-581).
T1 construct: Cells: U118MG (endogenous), HCT116-huLRRC15, 3T12-huLRRC15 transfectants, TGFbeta-treated A549, human BM-MSC; also called huLRRC15; endogenous huLRRC15
T1 sequence: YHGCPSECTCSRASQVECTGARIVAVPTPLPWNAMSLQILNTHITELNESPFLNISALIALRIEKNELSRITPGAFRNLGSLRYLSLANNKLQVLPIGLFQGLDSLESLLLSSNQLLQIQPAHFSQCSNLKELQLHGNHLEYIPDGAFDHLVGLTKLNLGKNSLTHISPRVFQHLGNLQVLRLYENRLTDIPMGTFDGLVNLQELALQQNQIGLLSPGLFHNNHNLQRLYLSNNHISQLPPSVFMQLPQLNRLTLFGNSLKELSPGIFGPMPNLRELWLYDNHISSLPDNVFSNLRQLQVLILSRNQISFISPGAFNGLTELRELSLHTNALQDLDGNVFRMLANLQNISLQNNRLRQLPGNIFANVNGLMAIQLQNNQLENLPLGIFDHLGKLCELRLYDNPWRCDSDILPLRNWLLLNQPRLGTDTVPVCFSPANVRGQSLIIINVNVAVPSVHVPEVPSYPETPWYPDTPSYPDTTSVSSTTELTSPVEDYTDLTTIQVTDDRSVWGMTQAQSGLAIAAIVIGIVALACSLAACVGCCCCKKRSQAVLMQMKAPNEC
Put plainly: flow cytometry on U118MG cells. The text has this:
Isotype control antibodies (mouse or human) were used as appropriate.
For orientation: In flow cytometry, cells or beads pass a laser one at a time.

In experiment [2] the target is T2, huLRRC15-Fc fusion protein (huLRRC15 ECD residues 22 to 526 of SEQ ID NO:3 fused to Fc) (human, UniProt Q8TF66 22-526).
T2 construct: Coated on the ELISA plate at 2 ug/mL; also called huLRRC15-ECD-Fc; huLRRC15 fusion ECD protein
T2 sequence: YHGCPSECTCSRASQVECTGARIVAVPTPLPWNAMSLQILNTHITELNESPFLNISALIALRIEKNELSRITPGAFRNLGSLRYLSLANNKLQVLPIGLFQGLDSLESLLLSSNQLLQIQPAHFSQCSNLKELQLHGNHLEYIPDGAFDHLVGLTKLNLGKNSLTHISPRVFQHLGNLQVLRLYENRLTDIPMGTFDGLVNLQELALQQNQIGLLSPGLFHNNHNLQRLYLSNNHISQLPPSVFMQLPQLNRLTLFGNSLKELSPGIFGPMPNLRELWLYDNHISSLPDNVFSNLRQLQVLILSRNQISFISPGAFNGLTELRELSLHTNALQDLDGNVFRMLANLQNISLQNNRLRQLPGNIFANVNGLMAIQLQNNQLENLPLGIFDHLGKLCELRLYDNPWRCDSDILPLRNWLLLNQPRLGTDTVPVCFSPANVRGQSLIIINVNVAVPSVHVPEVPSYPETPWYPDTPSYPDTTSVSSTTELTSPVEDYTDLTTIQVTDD
Put plainly: ELISA on coated huLRRC15-ECD-Fc. As to the method: 96-well Immulon 4HBX plates (Thermo, cat. #3855) were coated with 100 μL/well of this huLRRC15 fusion ECD protein at 2 μg/mL in carbonate-bicarbonate buffer (Thermo, cat.#28382) pH 9.4 and allowed to bind overnight at 4° C. Plates were washed three times with PBST and then incubated with various concentrations of antibodies in PBST+0.3% BSA at room temperature for one hour. […] Plates were washed three times in PBST and 100 μL of TMB (Surmodics BioFx cat.# TMBW-1000-01) was added to each well and incubated at RT until color developed (approximately 10 minutes). Reactions were stopped by the addition of 650 nm Stop Reagent for TMB (Surmodics BioFx, cat.# BSTP-0100-01), and optical density (OD) was read at 650 nm (Molecular Devices Versamax PLUS).
(In an ELISA, binding on a coated surface is turned into a signal by an enzyme label.)

For experiment [3], the target named is T1, human LRRC15 (leucine-rich …). Put plainly: cell-based or functional assay.
The target is the same in experiment [4]. Put plainly: flow cytometry competition on U118MG cells; unlabeled antibody titrated against muM25-AF488 at 1 ug/ml, GeoMean normalized to muM25-AF488 alone.

Substitutions are numbered along the chain they refer to. In names and notes the source's numbering stands.

B1: huAD208.12.1 (antibody, V domains shown)
VH: EVQLVQSGAEVKKPGSSVKVSCKASGYTFTNYWMHWVKQAPGQGLEWIGMIHPNSGSTKHNEKFRGKATLTVDESTTTAYMELSSLRSEDTAVYYCARSDFGNYRWYFDVWGQGTTVTVSS
VL: EIVLTQSPATLSLSPGERATLSCRASQSSSNNLHWYQQKPGQAPRVLIKYVSQSISGIPARFSGSGSGTDFTLTISSLEPEDFAVYFCQQSNSWPFTFGQGTKLEIK
notes: Humanized full-length antibody
For B1, the binding result in experiment [1] is listed as “binds”.

B2: muAD210.40.9 (antibody, V domains shown)
VH: QVQLQQSGAELVRPGTSVKISCKASGYDFTNYWLGWVKQRPGHGLEWIGDIYPGGGNTYYNEKLKGKATLTADKSSSTAYIHLISLTSEDSSVYFCARWGDKKGNYFAYWGQGTLVTVSA
VL: QIVLTQSPAIMSASLGERVTMTCTASSSVYSSYLHWYQQKPGSSPKLWIYSTSNLASGVPGRFSGSGSGTSYSLTISSMEAEDAATYYCHQYHRSPTFGGGTKLEIK
notes: Murine antibody; Compared with a muIgG2a isotype control
Usually EC50 stands for the midpoint of the concentration-response curve. Low readings indicate an effect from little substance, high ones a need for much substance. In experiment [1], B2 had an EC50 of 0.08 nM.

B3: hu139.10 (antibody, V domains shown)
VH: EVQLVESGGGLVQPGGSLRLSCAVSGFSLTSYGVHWVRQATGKGLEWLGVIWAGGSTNYNSALMSRLTISKENAKSSVYLQMNSLRAGDTAMYYCATHMITEDYYGMDYWGQGTTVTVSS
VL: DIVMTQSPDSLAVSLGERATINCKSSQSLLNSRTRKNYLAWYQQKPGQSPKLLIYWASTRESGVPDRFSGSGSGTDFTLTISSLQAEDVAVYYCKQSYNLPTFGGGTKVEIK
notes: Humanized full-length antibody; Compared with a huIgG1 isotype control
Turning to B3, the EC50 in experiment [1] was found to be 0.28 nM; in experiment [2], 0.11 nM.

B4: huM25-mcMMAF-E2 (antibody, human IgG1, kappa)
heavy: not shown
light: DIQMTQSPSSLSASVGDRVTITCRASQDISNYLNWYQQKPGGAVKFLIYYTSRLHSGVPSRFSGSGSGTDYTLTISSLQPEDFATYFCQQGEALPWTFGGGTKVEIKRTVAAPSVFIFPPSDEQLKSGTASVVCLLNNFYPREAKVQWKVDNALQSGNSQESVTEQDSKDSTYSLSSTLTLSKADYEKHKVYACEVTHQGLSSPVTKSFNRGEC
modifications: mcMMAF (maleimidocaproyl monomethyl auristatin F) on cysteines of reduced interchain disulfides, two drugs per antibody (E2); which chain carries them is not stated
Turning to B4, the “in vitro killing of HCT116-huLRRC15 cells, EC50” value in experiment [3] turned out to be 0.028 nM.

B5: huM25-S239C-PBD-E2 (antibody, human IgG1, kappa)
heavy: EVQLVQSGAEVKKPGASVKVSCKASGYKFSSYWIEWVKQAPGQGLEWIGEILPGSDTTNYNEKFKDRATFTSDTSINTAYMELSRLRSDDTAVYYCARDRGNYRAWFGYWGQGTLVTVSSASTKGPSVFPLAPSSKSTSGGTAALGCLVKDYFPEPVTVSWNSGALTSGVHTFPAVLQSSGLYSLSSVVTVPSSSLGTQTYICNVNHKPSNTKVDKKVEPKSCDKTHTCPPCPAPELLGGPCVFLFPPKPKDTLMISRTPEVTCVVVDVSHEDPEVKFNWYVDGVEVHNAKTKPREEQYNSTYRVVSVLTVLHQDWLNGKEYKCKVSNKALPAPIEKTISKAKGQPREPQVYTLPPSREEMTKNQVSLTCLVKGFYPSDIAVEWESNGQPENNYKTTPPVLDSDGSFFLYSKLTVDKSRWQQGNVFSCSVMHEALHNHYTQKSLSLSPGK
light: B4 light
modifications: vaPBD (Val-Ala pyrrolobenzodiazepine dimer synthon) on the engineered cysteine S239C, DAR2
As to B5, the “in vitro killing of A549-EMT transformed cells treated with TGFbeta, EC50” value in experiment [3] was found to be 0.01 nM.

B6: huM25 (antibody, human IgG1, kappa)
heavy: not shown
light: B4 light
notes: Humanized IgG1 kappa; also called huM25-AF647
With B6, the concentration for a half-maximal effect (EC50) is 0.498 nM in experiment [1] and 0.26 nM in experiment [2]. The “IC50 (read off the curve)” value in experiment [4] is around 0.4 µg/mL.

B7: huM25-vcMMAE-E2 (antibody, human IgG1, kappa)
heavy: not shown
light: B4 light
modifications: vcMMAE (maleimidocaproyl-Val-Cit-PABA-monomethyl auristatin E) on cysteines of reduced interchain disulfides, two drugs per antibody (E2); which chain carries them is not stated
B7: the “in vitro killing of HCT116-huLRRC15 cells, EC50” value in experiment [3] stood at 0.069 nM.

B8: muAD209.9.1 (antibody, V domains shown)
VH: QIQLVQSGPELKKPGETVKISCKASGFAITNFGMNWVKQAPGKGLKWMGWINLYTGEPTFADDFKGRFAFSLETSASTAYLQINNLKNEDTVIYFCARKGETYYRYDGFAYWGQGTLVTVSA
VL: DIVMTQAAPSVPVTPGESVSISCRSSKSLLHSNGNTHLYWFLQRPGQSPQLLIYRMSNLASGVPDRFSGSGSGTAFTLRISRVEAEDVGVYYCMQLLEYPYTFGGGTKLEIE
notes: as for B2
For the molecule B8, the EC50 in experiment [1] amounted to 0.787 nM; in experiment [2] it was 0.14 nM.

B9: huAD208.4.1 (antibody, V domains shown)
VH: EVQLVQSGAEVKKPGSSVKVSCKASGFTFTDYYIHWVKQAPGQGLEWIGLVYPYIGGTNYNQKFKGKATLTVDTSTTTAYMEMSSLRSEDTAVYYCARGDNKYDAMDYWGQGTTVTVSS
VL: DIVLTQSPDSLAVSLGERATINCRASQSVSTSSYSYMHWYQQKPGQPPKLLIKYASSLESGVPDRFSGSGSGTDFTLTISSLQAEDVAVYYCEQSWEIRTFGGGTKVEIK
notes: Humanized full-length antibody, compared with a huIgG1 isotype control
In the case of B9, the results for the EC50 in experiment [1] and in experiment [2] were 0.29 nM and 0.25 nM, respectively.

B10: huAD208.14.1 (antibody, V domains shown)
VH: B9 VH with T58S, N59S, K63Q, T77S, M83L, K102N
VL: B9 VL with N22S, S33T, S35N, I52V, S57N, E93H, Q94H, S95T
notes: as for B3
As to B10, the EC50 in experiment [1] is 5.25 nM; in experiment [2], 0.8 nM.
